US20240343803A1 (SHANDONG SIMCERE BIOPHARMACEUTICAL, published 2024)

Columns and labels:
[1] = molecular target: T1, cynomolgus monkey PVRIG on FlpinCHO-cyno PVRIG cells (cynomolgus monkey, UniProt A0A2K5WVV8 41-322); test: FACS, FlpinCHO-cyno PVRIG cells
T1 construct: whole, on cells; also called FlpinCHO-cynomolgus monkey PVRIG
T1 sequence: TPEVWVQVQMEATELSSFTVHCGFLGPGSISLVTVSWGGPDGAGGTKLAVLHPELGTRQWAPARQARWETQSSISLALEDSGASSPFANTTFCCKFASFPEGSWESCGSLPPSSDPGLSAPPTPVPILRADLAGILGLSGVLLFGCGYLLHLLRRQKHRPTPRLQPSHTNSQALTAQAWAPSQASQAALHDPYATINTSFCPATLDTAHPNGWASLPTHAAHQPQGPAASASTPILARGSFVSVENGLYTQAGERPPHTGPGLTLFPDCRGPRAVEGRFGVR

[2] = molecular target: T2, human TIGIT ECD-mFc (fusion protein of extracellular domain of human TIGIT and mouse IgG2a Fc fragment) (human); test: FACS, competition: hTIGIT ECD-mFc to CHO-K1 CD155
T2 chain: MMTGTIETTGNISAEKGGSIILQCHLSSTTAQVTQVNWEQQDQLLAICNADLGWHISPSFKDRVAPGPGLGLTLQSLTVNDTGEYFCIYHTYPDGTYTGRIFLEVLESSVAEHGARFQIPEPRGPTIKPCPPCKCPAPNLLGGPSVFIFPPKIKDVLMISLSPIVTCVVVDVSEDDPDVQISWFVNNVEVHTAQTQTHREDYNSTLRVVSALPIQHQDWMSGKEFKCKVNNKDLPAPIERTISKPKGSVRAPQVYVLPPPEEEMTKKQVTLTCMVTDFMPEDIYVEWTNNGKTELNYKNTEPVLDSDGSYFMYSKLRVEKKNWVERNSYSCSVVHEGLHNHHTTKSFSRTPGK
Method: The collected CHO-K1 CD155 cells were washed once with PBS (Hyclone, CAT #SH30256) and resuspended to 2×10⁵/40 μL with 1% BSA-PBS. The tested antibodies were diluted to 600 nM with 1% BSA-PBS (diluted by 2.5-fold serial dilution for 12 concentration points). The TIGIT ECD-mFc was diluted with 1% BSA-PBS to 6 μg/mL. The 40 μL cells were then mixed with 40 μL diluted antibodies and 40 μL diluted TIGIT ECD-mFc, and then incubated at 4° C. for 60 minutes. […] The cell samples were washed twice with PBS, resuspended to 100 μL/well with 1% BSA-PBS and then analyzed by flow cytometry (BD, Canto II).

[3] = molecular target: T3, full-length human TIGIT on CHO-K1 cells (CHO-K1 human TIGIT) (human, UniProt Q495A1 22-244); test: FACS, competition: Bio-CD155-His to CHO-K1 human TIGIT
T3 construct: NCBI XP_024309156.1; entry includes the signal peptide; also called high expression strain 1D2; medium expression strain 2D10
T3 sequence: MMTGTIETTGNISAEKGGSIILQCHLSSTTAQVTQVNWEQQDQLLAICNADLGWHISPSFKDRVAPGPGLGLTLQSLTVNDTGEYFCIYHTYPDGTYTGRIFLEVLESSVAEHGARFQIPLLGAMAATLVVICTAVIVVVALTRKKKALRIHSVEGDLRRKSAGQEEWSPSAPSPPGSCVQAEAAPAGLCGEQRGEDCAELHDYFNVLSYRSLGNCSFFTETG
Method: The collected cells were washed once with PBS (Hyclone, CAT #SH30256), resuspended to 2×10⁵/40 μL with 1% BSA-PBS. The antibodies were diluted to 210 nM with 1% BSA-PBS (diluted by 3-fold serial dilution for 12 concentration points). […] The 40 μL cells were then mixed with 40 μL diluted antibodies and 40 μL diluted Bio-CD155-His, and then incubated at 4° C. for 60 minutes. The cells were washed twice with PBS, resuspended with APC labeled streptavidin (dilution ratio 1:1700, Biolegend, 405243), 100 μL/well, and incubated at 4° C. for 40 minutes. The cell samples were washed twice with PBS, resuspended with 1% BSA-PBS, 100 μL/well and then analyzed by flow cytometry (BD, Canto II). […] [0300] (d) The effect of anti-TIGIT chimeric antibodies blocking the interaction between TIGIT ECD-mFc and CHO-K1 CD155 detected by FACS

[4] = molecular target: T4, Fusion protein of extracellular domain of human TIGIT and His-tag (human TIGIT ECD-his) (human); test: BIAcore; KD ratio to TIGIT-CHI-002
T4 chain: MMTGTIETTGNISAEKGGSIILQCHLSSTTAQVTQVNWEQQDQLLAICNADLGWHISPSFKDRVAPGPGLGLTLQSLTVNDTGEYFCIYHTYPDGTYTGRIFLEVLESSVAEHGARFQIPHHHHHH

[5] = molecular target: T4, Fusion protein of extracellular domain …; test: BIAcore; KD ratio, by the numbers to TIGIT-005-H2L1 of r33

B1: SRF813-hIgG1 (antibody, V domains shown)
VH: QVQLVQSGAEVKKPGSSVKVSCKASGGTFSSAAISWVRQAPGQGLEWMGNIIPIVGIANYAQKFQGRVTITADESTSTAYMELSSLRSEDTAVYYCARDTGRGYTRHFWFDPWGQGTLVTVSS
VL: DIQMTQSPSSLSASVGDRVTITCRASQSISSYLNWYQQKPGKAPKLLIYAASSLQSGVPSRFSGSGSGTDFTLTISSLQPEDFATYYCQQSDILYTFGGGTKVEIK
notes: human IgG1 format by its name
[1]
  EC50 (read off the curve): 1 to 1.4 nM

B2: RG6058-hIgG1 (antibody, V domains shown)
VH: EVQLQQSGPGLVKPSQTLSLTCAISGDSVSSNSAAWNWIRQSPSRGLEWLGKTYYRFKWYSDYAVSVKGRITINPDTSKNQFSLQLNSVTPEDTAVFYCTRESTTYDLLAGPFDYWGQGTLVTVSS
VL: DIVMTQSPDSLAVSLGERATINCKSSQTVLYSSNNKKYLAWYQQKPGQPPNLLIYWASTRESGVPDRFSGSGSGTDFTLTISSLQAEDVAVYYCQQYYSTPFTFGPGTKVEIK
notes: human IgG1 format by its name; also called Roche RG6058; control antibody RG6058
[2]
  IC50: 0.566 nM
[3]
  IC50: 0.388 nM

B3: TIGIT-002-H4L3 (antibody, V domains shown)
VH: EVQLQESGPGLVKPSETLSLTCAVSGYSITSDSWNWIRQPPGKKLEYIGYISYSGNTYYNPSLKSRVTISRDTSKNQFSLKLSSVTAADTAVYYCARLDFSNYGGAVDYWGQGTTVTVSS
VL: DIVMTQSPDSLAVSLGERATINCKASQNVRTAVAWYQQKPGQSPKLMIYSASYRYTGVPDRFSGSGSGTDFTLTISSLQAEDVAVYYCQQYYTTPWTFGGGTKVEIK
notes: Humanized anti-TIGIT antibody
[4]
  Fold change vs chimeric antibodies (KD): 1.26 fold

B4: TIGIT-005-H2L1d (antibody, V domains shown)
VH: EVQLVQSGAEVKKPGASVKVSCKASGYAFTNYLIEWVRQAPGQRLEWMGVINPGSGGTNYKEKFKGRVTITADKSSSTAYMELSSLRSEDTAVYYCARGEYFFFDYWGQGTTVTVSS
VL: DIVMTQSPDSLAVSLGERATINCKASQHVSNAVAWYQHKPGQSPKLLIYSASYRYTGVPDRFSGSGSGTDFTLTISSLQAEDVAVYYCQQHYNTPHTFGGGTKVEIK
notes: Humanized anti-TIGIT antibody with NG-site mutation in VL
[5]
  Fold change vs chimeric antibodies (KD): 1.21 fold
